Data on one molecule can be found in patent US20130129763A1 (ARNE FORSGREN, published 2013).

Test [1] deals with T1, methylamine-treated C3 (C3met) (human, UniProt P01024 23-667; P01024 672-1663).
T1 construct: mature; also called C3b-like molecule; [125I]-C3met
Description: SPR (Biacore 2000), UspA protein amine-coupled on CM5 chip, C3met injected, steady state affinity model; UspA1^50-770 on the chip. (In general: In SPR one partner is held on a chip, and binding of the other changes the refractive index at the surface.)

Test [2] addresses T2, Engelbreth-Holm-Swarm mouse sarcoma laminin (Sigma) (mouse, UniProt P19137 25-3083; P02469 22-1786; P02468 34-1607).
T2 construct: also called soluble laminin
Description: ELISA: 40 nM UspA1 50-770 coated, soluble laminin titrated in three-fold steps 0.03-60 µg/ml, rabbit anti-laminin pAb + HRP anti-rabbit pAb.

T1 sequence (P01024 23-667 limits assumed, chain 1 of 2): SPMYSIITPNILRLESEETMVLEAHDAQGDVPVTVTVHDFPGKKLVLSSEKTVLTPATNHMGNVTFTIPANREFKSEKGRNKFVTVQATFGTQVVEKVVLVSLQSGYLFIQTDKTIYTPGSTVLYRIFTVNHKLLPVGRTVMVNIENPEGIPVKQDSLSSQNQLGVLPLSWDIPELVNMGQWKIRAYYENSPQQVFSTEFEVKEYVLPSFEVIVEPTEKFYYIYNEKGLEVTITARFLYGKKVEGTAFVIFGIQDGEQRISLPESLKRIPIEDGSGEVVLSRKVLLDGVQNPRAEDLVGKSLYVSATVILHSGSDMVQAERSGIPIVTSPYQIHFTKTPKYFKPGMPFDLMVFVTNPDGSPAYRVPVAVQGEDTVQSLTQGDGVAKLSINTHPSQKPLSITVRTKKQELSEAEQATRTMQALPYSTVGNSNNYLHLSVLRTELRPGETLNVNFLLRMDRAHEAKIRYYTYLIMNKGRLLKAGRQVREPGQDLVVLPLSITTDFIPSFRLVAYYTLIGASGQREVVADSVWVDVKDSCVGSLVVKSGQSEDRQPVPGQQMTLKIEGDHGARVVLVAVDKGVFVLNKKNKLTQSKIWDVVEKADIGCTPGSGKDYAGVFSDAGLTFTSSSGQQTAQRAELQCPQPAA
T1 sequence (P01024 672-1663 limits assumed, chain 2 of 2): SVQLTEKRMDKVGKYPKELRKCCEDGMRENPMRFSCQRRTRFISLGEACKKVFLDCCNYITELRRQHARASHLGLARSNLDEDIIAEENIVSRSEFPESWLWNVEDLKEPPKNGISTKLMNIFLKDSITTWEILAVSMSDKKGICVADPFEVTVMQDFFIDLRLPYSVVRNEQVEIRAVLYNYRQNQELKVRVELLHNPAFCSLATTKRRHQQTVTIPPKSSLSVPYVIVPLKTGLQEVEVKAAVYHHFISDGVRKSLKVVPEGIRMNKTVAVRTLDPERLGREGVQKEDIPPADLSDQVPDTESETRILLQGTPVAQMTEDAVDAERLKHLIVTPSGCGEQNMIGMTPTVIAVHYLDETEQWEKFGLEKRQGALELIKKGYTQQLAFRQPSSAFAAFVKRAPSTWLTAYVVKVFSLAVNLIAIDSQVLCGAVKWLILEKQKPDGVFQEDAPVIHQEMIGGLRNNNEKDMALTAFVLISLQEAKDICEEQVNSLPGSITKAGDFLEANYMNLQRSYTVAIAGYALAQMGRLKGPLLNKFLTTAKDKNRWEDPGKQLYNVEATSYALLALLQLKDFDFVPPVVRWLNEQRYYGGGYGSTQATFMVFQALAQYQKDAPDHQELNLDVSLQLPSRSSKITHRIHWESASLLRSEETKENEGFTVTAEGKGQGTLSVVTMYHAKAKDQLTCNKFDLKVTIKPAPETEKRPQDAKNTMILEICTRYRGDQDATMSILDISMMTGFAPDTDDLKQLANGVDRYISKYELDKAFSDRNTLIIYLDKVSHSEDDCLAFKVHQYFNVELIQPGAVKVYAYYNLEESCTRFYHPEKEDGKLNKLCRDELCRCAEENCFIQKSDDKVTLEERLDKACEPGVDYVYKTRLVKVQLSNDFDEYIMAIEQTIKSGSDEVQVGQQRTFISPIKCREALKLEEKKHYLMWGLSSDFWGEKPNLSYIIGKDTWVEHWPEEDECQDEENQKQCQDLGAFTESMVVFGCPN

B1: recombinant UspA1^50-770 (M. catarrhalis Bc5) (other)
chain: KVGKATNKISGGDNNTANGTYLTIGGGDYNKTKGRYSTIGGGLFNEATNEYSTIGSGGYNKAKGRYSTIGGGGYNEATNQYSTIGGGDNNTAKGRYSTIGGGGYNEATIENSTVGGGGYNQAKGRNSTVAGGYNNEATGTDSTIAGGRKNQATGKGSFAAGIDNKANADNAVALGNKNTIEGENSVAIGSNNTVKKGQQNVFILGSNTDTTNAQNGSVLLGHNTAGKAATIVNSAEVGGLSLTGFAGASKTGNGTVSVGKKGKERQIVHVGAGEISDTSTDAVNGSQLHVLATVVAQNKADIKDLDDEVGLLGEEINSLEGEIFNNQDAIAKNQADIKTLESNVEEGLLDLSGRLLDQKADIDNNINNIYELAQQQDQHSSDIKTLKNNVEEGLLDLSGRLIDQKADLTKDIKALESNVEEGLLDLSGRLIDQKADIAKNQADIAQNQTDIQDLAAYNELQDAYAKQQTEAIDALNKASSANTDRIATAELGIAENKKDAQIAKAQANENKDGIAKNQADIQLHDKKITNLGILHSMVARAVGNNTQGVATNKADIAKNQADIANNIKNIYELAQQQDQHSSDIKTLAKVSAANTDRIAKNKAEADASFETLTKNQNTLIEQGEALVEQNKAINQELEGFAAHADVQDKQILQNQADITTNKTAIEQNINRTVANGFEIEKNKAGIATNKQELILQNDRLNRINETNNHQDQKIDQLGYAL
notes: also called UspA1^56-770 [sic]; UspA1^50-7"
As a reminder, the Kd is the equilibrium constant for the complex coming apart. Low values mean tighter binding, high ones weaker binding. In test [1], B1 gave a Kd of 14 µM. Also, in test [2], the binding result is given as “binds”.
